# Results from US7803572B2, “Protease detection assay” (Atlas Genetics, Ltd., priority 2003, dated 2010).
# T1: papaya latex papain (Carica papaya, UniProt P00784)
# T1 construct: purchased Sigma; host or cells: papaya latex
# T1 sequence (P00784 134-345): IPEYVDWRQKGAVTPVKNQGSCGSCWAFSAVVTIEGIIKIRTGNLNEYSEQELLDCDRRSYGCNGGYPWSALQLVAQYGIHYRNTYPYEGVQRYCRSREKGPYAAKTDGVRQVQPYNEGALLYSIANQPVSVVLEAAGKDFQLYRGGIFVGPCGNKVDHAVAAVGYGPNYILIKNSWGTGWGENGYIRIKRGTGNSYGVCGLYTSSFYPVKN
# T2: papain (Carica papaya, UniProt P00784)
# T2 construct: purchased Sigma; host or cells: papaya latex
# T2 sequence (P00784 134-345): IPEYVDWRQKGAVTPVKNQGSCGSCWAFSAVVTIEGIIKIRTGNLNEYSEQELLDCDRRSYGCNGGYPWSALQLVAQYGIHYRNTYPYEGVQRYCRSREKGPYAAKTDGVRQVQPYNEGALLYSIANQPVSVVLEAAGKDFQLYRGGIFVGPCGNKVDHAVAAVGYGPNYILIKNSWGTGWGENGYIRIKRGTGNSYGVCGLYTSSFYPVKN
# T3: type I-S soybean trypsin inhibitor, P01070
# T3 chain: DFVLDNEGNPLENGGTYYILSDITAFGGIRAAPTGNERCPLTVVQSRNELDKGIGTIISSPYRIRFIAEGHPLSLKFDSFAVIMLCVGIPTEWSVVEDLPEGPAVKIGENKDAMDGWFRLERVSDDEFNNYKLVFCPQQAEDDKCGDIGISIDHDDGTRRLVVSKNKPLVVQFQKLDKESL
# What was measured:
# trypsin = molecular target: T4, trypsin (Sus scrofa, UniProt P00761); assay: Amperometric analysis of trypsin digestion; assay type: biochemical, porcine; details: amperometric time course trace
# T4 construct: purchased Sigma; host or cells: porcine pancreas
# Method: (§1) Four digestion reactions were carried out with real-time amperometric analysis. […] Tryspin was resuspended in HCl (1 mM, pH 3.0), papain and carboxypeptidase were resuspended in NaCl (100 mM). […] The amperometry conditions were as set out in Tables 2 and 3.
# In FIG. 17, there is shown the amperometric time course trace for the trypsin digestion of Fc-BSA. […] As the movement of the species present in the solution reaches a steady state, the current response appears to decay.
# (§2) In FIG. 18, there is shown the amperometric time course trace for the papain digestion of FcU-BSA. […] As the movement of the species present in the solution reaches a steady state, the current response appears to decay. […] The amperometric time course trace for the trypsin digestion of FcU-BSA is not illustrated in the drawings but was analogous.
# papaya latex papain = molecular target: T1, papaya latex papain; assay: Digestion of FcU-BSA with papain, differential pulse voltammetry; assay type: biochemical
# Method: (§3) Protease assays were performed as follows unless stated otherwise. […] Samples were incubated at 37° C. for 1 hour.
# A digestion of FcU-BSA with papain was carried out as described above.
# porcine pancreas trypsin [1] = molecular target: T5, porcine pancreas trypsin (Sus scrofa, UniProt P00761); assay: Digestion of labelled protein with trypsin, differential pulse voltammetry; assay type: biochemical
# T5 construct: purchased Sigma; host or cells: porcine pancreas
# Method: as §3
# A digestion of Fc-BSA with trypsin was carried out as described above. […] The positive reaction has a peak position of 435 mV and a peak height of 4.58×10^−7 A; the no trypsin control reaction has a peak position of 432 mV and a peak height of 2.55×10^−8 A.
# A digestion of unlabelled BSA with trypsin was carried out in the same manner as for the labelled molecules as described above. The differential pulse voltammogram results are shown in FIG. 10 in which (a) is the trace for a no-trypsin control reaction and (b) is the trace for trypsin BSA reaction.
# A digestion of FcU-BSA with trypsin was carried out as described above. […] The positive reaction has a peak position of 97 mV and a peak height of 5.01×10^−7 A; there was no peak in the no-trypsin control reaction. […]
# Five digestions of Fc-BSA with trypsin were carried out using the protocol described above. As described in the general protocol, 2 μl of enzyme was used for each 200 μl reaction; for reaction (i) 10 mg/ml enzyme solution was used; reaction (ii): 1 mg/ml; reaction (iii) 0.1 mg/ml; reaction (iv) 0.01 mg/ml and reaction (v) was a no-trypsin control. The differential pulse voltammogram results are shown in FIG. 14 with baseline correction.
# Five digestions of Fc-BSA with trypsin were carried out using the protocol described above. In reaction (i) the incubation at 37° was carried out for 60 minutes, in reaction (ii) for 15 minutes, in reaction (iii) for 5 minutes, in reaction (iv) for 2 minutes and reaction (v) was a 0 minutes no-trypsin control. The differential pulse voltammogram results are shown in FIG. 15 with baseline correction.
# papain = molecular target: T2, papain; assay: Amperometric analysis of papain digestion; assay type: biochemical; details: amperometric time course trace, FIG. 18
# Method: as §1, §2
# [2] = molecular target: porcine pancreas trypsin (1120 BAEE units/mg solid) (porcine) (UniProt P00761); assay: cell-based or functional assay
# porcine pancreas trypsin [3] = molecular target: T5, porcine pancreas trypsin; assay: Effect of a protease inhibitor on electrochemical marker signal (trypsin digestion of Fc-BSA); assay type: biochemical
# Method: as §3
# Five digestions of Fc-BSA with trypsin were carried out using the protocol described above. In addition, soybean trypsin inhibitor was added to reaction mixtures […]. Solutions of the soybean trypsin inhibitor were prepared by resuspending inhibitor as supplied in deionised water to a concentration of 10 mg/ml and 1 mg/ml as appropriate. No inhibitor was added to reaction (i); 0.5 μl of 1 mg/ml inhibitor solution was added to reaction (ii); […] of 10 mg/ml inhibitor was added to reaction (iii); 5 μl of 10 mg/ml inhibitor solution was added to reaction (iv) and 5 μl of 10 mg/ml inhibitor solution was added to a no-trypsin control reaction. The differential pulse voltammogram results are shown in FIG. 16 with baseline correction.
# [4] = molecular target: T3, type I-S soybean trypsin inhibitor, …
# [5] = positive reaction, 37° C. for 1 hour
# [6] = positive reaction, 2 μl enzyme (10 mgml^−1), 37° C. for 1 hour
# [7] = no-trypsin control reaction with 5 μl of 10 mg/ml inhibitor solution
# [8] = reaction (ii): 0.5 μl of 1 mg/ml inhibitor solution
# [9] = reaction (iii): 0.51 of 10 mg/ml inhibitor
# [10] = reaction (iv): 5 μl of 10 mg/ml inhibitor solution
molecule,measurement,setting,value
FcU-BSA: Bovine serum albumin labelled with 4-(3′-ferrocenylureido)-1-benzoyl groups,faradaic current response over time after addition of the enzyme,trypsin,analogous
same,peak,papaya latex papain; no-papain control reaction,no peak was found
same,peak height,papaya latex papain; [5],2.62×10^−7 A
same,peak position,papaya latex papain; [5],93 mV
same,peak height,porcine pancreas trypsin [1]; no-trypsin control reaction,no peak
same,peak height,porcine pancreas trypsin [1]; [6],5.01×10^−7 A
same,peak position,porcine pancreas trypsin [1]; [6],97 mV
same,faradaic current response over time after addition of the enzyme,papain,increase in current
type I-S soybean trypsin inhibitor (from UniProt P01070 25-205),"peak height, differential pulse voltammogram of trypsin digestion of Fc-BSA; reaction (ii), 0.5 ul of 1 mg/ml inhibitor solution in the 200 ul reaction (no-inhibitor reaction (i): 2.56x10^-7 A)",[2],2.12e-07 A
"unlabelled BSA: Bovine serum albumin (lyophilised powder, approx. 99%) from Sigma, unlabelled control substrate [reference compound]",peaks in differential pulse voltammogram,"porcine pancreas trypsin [1]; unlabelled substrate, trypsin reaction and no-trypsin control",No peaks were found
soybean trypsin inhibitor: type I-S soybean trypsin inhibitor obtained from Sigma (protein) DFVLDNEGNPLENGGTYYILSDITAFGGIRAAPTGNERCPLTVVQSRNELDKGIGTIISSPYRIRFIAEGHPLSLKFDSFAVIMLCVGIPTEWSVVEDLPEGPAVKIGENKDAMDGWFRLERVSDDEFNNYKLVFCPQQAEDDKCGDIGISIDHDDGTRRLVVSKNKPLVVQFQKLDKESL,peak height,porcine pancreas trypsin [3]; [7],2.75×10^−8 A
same,peak position,porcine pancreas trypsin [3]; [7],429 mV
same,peak height,porcine pancreas trypsin [3]; [8],2.12×10^−7 A
same,peak position,porcine pancreas trypsin [3]; [8],435 mV
same,peak height,porcine pancreas trypsin [3]; [9],1.60×10^−7 A
same,peak position,porcine pancreas trypsin [3]; [9],430 mV
same,peak height,porcine pancreas trypsin [3]; [10],5.33×10^−8 A
same,peak position,porcine pancreas trypsin [3]; [10],426 mV
porcine pancreas trypsin (1120 BAEE units/mg solid) (protein) IVGGYTCAANSIPYQVSLNSGSHFCGGSLINSQWVVSAAHCYKSRIQVRLGEHNIDVLEGNEQFINAAKIITHPNFNGNTLDNDIMLIKLSSPATLNSRVATVSLPRSCAAAGTECLISGWGNTKSSGSSYPSLLQCLKAPVLSDSSCKSSYPGQITGNMICVGFLEGGKDSCQGDSGGPVVCNGQLQGIVSWGYGCAQKNKPGVYTKVCNYVNWIQQTIAAN,magnitude of signal in the differential pulse voltammogram of trypsin digestion of Fc-BSA,[4],the magnitude of signal in the differential pulse voltammogram is strongly dependent on the concentration of inhibitor present in the digestion experiment
